Entries after “also recorded” stand apart in the source; their conditions may differ. Where two headings read alike, the source gives them in different places.
What was measured:
[1] = ob/ob mouse model Study 1: PEG30-S-MAL-FMS-OXM variants at 2000 nmol/kg; format: in vivo, male ob/ob mice; settings: 2000 nmol/kg sc; for final reduction of body weight (on day 18) compared to vehicle (PEG-SH) group: days 1, 5, 9, 13 and 16
Description: Terminal samples on day 19 were analyzed for cholesterol.

[2] = IP glucose tolerance test (IPGTT model); format: in vivo, C57BL/6 male mice; settings: for AUC (0-180) / AUC (−60-180): blood glucose, 100 nmol/kg peptide content IP 15 min prior to glucose 1.5 gr/kg IP; for % AUC from control, AUC (0-180) / % AUC from control, AUC (−60-180): control PEG-SH, 100 nmol/kg peptide content IP
[3] = Hydrolysis rate of MOD-6031 in phosphate buffer at different pH; format: physicochemical
[4] = Ex-vivo hydrolysis rate of MOD-6031 in rat plasma; format: in vitro ADME
Description: (§1) After evaporation to dryness and reconstitution, the extracts were analysed by LC-MS/MS. […] Incubation at temperatures of 35° C., 37° C. and 41° C. was examined in rat plasma. […] For human plasma, both pooled and individual samples were measured using plasma derived from male and female subjects. […] The hydrolysis was stopped at the designated time point by freezing the sample at −70° C. […] For each condition, three independent samples were prepared. Samples were incubated at a given temperature of either 35° C., 37° C. or 41° C. All samples were stored at −70° C. prior to analysis. […] Temperature, wherein hydrolysis was tested at temperatures of 35° C., 37° C., and 41° C.; and • c. Plasma source, wherein hydrolysis was tested in plasma samples obtained from rat, cynomolgus monkeys and human. For human plasma, both pooled and individual samples were used, and hydrolysis rates were measured separately for plasma from males and females. […] At designated time points, samples were taken for LC-MS/MS analysis.

[5] = mouse, in vivo, sc
[6] = ob/ob mouse model Study 2: chronic MOD-6031, OXM, liraglutide pharmacology; format: in vivo, male ob/ob mice
Description: Body weight, food and water intake were recorded daily. […] Body weight, food and water intake were measured daily.

[7] = Ex-vivo hydrolysis rate of MOD-6031 in human plasma; format: in vitro ADME
Description: as §1

[8] = Viscosity analysis (Brookfield rheometer); format: physicochemical
Description: Viscosity was measured with a Brookfield rheometer (DV-III Ultra). For each formulation, viscosity was obtained from the average of five shear rate (Sec^−1) readouts (15.0, 30.0, 45.0, 60.0 and 75.0) at a controlled temperature of 25° C. Processing of the data was done using Rheocalc® software (Brookfield).
Conditions included concentration, buffer type, pH, and NaCl. Buffers were formed by interaction of base part of the buffer and the trifluoro acetic acid (TFA) that co-eluted with the […] (DS). […]

[9] = biological target: T1, dipeptidyl peptidase IV (DPPIV) (Homo sapiens, UniProt P27487); assay: DPPIV digestion assay by RP-HPLC; settings: pH = 6
T1 sequence (P27487 whole entry, species assumed): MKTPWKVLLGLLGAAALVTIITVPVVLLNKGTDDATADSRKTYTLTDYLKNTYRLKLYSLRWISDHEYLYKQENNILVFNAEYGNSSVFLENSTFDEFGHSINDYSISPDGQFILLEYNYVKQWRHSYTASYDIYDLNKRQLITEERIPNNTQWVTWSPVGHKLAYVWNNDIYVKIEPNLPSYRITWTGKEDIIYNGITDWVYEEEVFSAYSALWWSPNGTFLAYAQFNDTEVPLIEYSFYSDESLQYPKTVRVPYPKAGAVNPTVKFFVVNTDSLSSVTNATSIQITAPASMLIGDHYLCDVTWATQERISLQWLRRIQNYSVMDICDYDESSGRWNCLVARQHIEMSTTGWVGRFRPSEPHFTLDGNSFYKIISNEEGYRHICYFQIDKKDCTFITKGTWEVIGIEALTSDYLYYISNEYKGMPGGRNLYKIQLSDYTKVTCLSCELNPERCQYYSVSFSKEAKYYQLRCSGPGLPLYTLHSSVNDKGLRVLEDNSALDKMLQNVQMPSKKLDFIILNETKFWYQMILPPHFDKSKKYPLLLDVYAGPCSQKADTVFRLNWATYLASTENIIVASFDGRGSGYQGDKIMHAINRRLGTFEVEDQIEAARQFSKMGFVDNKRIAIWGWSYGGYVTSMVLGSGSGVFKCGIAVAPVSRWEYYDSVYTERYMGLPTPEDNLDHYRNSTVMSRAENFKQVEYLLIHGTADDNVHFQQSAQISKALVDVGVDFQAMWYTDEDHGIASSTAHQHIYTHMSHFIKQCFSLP

[10] = ob/ob mouse model Study 3: MOD-6031 vs PEG30-Fmoc-OXM vs PEG30-EMCS-OXM; format: in vivo, male ob/ob mice; settings: for terminal plasma lipidic profiles and fructosamine (in words) / glucose profile, Day 30 OGTT (in words) / glucose tolerance, day 2 OGTT (in words): 6000 nmol/kg; for terminal plasma lipidic profiles and fructosamine (in words): day 33; for glucose profile, Day 30 OGTT (in words) / glucose tolerance, day 2 OGTT (in words): glucose 2 g/kg po
Description: Forty-two male ob/ob mice (7 weeks of age, Charles River, Italy) were acclimatized to the facility (10 days) followed by handling protocol whereby animals were handled as if to be dosed but were actually not weighed or dosed. Subsequently, animals underwent baseline period for 1 week in which each animal have been dosed twice by the subcutaneous route with PEG30-SH in volume of 20 ml/kg. Body weight, food and water intake were recorded daily, and samples were taken for non-fasting and fasting glucose measurements and non-fasting and fasting insulin measurements. Animals were subsequently allocated into three treatment, control and pair-fed groups (group A, N=10, groups B-E, N=8) based on plasma glucose, body weight and daily food and water intake. […] It was given the daily food ration equal to that eaten by its paired counterpart in group B the previous day. As such, animals in Group E will be one day out of phase with Group B in all study procedures and measurements. During the study, animals were dosed every four days (days: 1, 5, 9, 13, 17, 21, 25 and 29) as describes in table 3. […] Several procedures and sampling have been performed: non-fasting glucose on days 1, 6, 14, 22 and 29, fasting glucose on days 10, 18 and 26. On days 2 and 30 fasting glucose samples have been taken as part of an OGTT procedure, in which insulin was measured in parallel to glucose. Terminal samples on day 33 were analyzed for cholesterol, triglycerides and fructosamine.

[11] = Ex-vivo hydrolysis rate of MOD-6031 in cynomolgus monkey plasma; format: in vitro ADME
Description: as §1

[12] = biological target: T1, dipeptidyl peptidase IV (DPPIV)
[13] = Syringability analysis (Instron, glide force); format: physicochemical; settings: 25 Ga Needle; 9 in/min (16 sec)
Description: Syringeability was tested using an Instron instrument, model 5942. […] […] For each needle size, two speed rates were measured: 4.8 in/min and 9 in/min, which correspond to injection speeds of 1 ml per 30 sec and 16 sec, respectively.
In one case, acceptance criteria for syringability was set at <10 N (glide force). The results of syringability for two different formulations of an acetate based buffer and using three different gauge needles is presented in Table 29 below.

[14] = Human female (pool) plasma 37° C.
[15] = Human male (pool) plasma 37° C.
[16] = 6000 nmol/kg sc every four days
[17] = Monkey (lot# CYN128421) plasma 37° C.
[18] = Monkey (lot# CYN128423) plasma 37° C.

Substance: MOD-6030: heterogeneous mixture of PEG-S-MAL-FMS-OXM conjugate composed of three variants (N-terminal, Lys12 and Lys30) (HSQGTFTSDYSKYLDSRRAQDFVQWLMNTKRNRNNIA; Oxyntomodulin PEG30-S-MAL-FMS, mixed N-term/Lys12/Lys30; UniProt P01275 53-89, looked up)
- final reduction of body weight (on day 18) compared to vehicle (PEG-SH) group [1]: 4.7%
- AUC (0-180) [2]: 13541
- AUC (−60-180) [2]: 18200
- % AUC from control, AUC (0-180) [2]: 60.1%
- % AUC from control, AUC (−60-180) [2]: 67.8%

Substance: MOD-6031
- Cl/F_obs ([3]; Phosphate pH = 6.8): 0.061 (mg)/(μg/ml)/h
- MRT0-∞ ([3]; Phosphate pH = 6.8): 47.4 h
- Cl/F_obs ([3]; Phosphate pH = 7.4): 0.133 (mg)/(μg/ml)/h
- MRT0-∞ ([3]; Phosphate pH = 7.4): 20.3 h
- Cl/F_obs ([3]; Phosphate pH = 7.8): 0.227 (mg)/(μg/ml)/h
- MRT0-∞ ([3]; Phosphate pH = 7.8): 10.7 h
- Cl/F_obs ([4]; Table 10, Rat plasma 35° C.): 0.120 (mg)/(μg/ml)/h
- MRT0-∞ ([4]; Table 10, Rat plasma 35° C.): 14.7 h
- Cl/F_obs ([4]; Table 10, Rat plasma 37° C.): 0.129 (mg)/(μg/ml)/h
- MRT0-∞ ([4]; Table 10, Rat plasma 37° C.): 14.7 h
- Cl/F_obs ([4]; Table 10, Rat plasma 41° C.): 0.179 (mg)/(μg/ml)/h
- MRT0-∞ ([4]; Table 10, Rat plasma 41° C.): 9.6 h
- Cl/F_obs ([4]; Table 11, Rat plasma 37° C.): 0.056 (mg)/(μg/ml)/h
- MRT0-∞ ([4]; Table 11, Rat plasma 37° C.): 13 h
- hydrolysis rate, effect of temperature (in words) ([4]; rat plasma, 41° C. compared with 35° C. or 37° C.): incubation at 41 °C resulted in a higher hydrolysis rate
- ability to reduce weight, inhibit food intake and improve glycemic control (in words) [1]: superior efficacies
- non-fasting glucose (in words) [1]: improvement of non-fasting glucose
- final reduction of body weight (on day 18) compared to vehicle (PEG-SH) group [1]: 4.9%
- Plasma concentration 24 hours following last injection of repeat dosing regimen (Day 33) ([5]; 1000 nmol/kg): 67.51 µg/mL
- Plasma concentration 24 hours following single dose (Day 2) ([5]; 1000 nmol/kg): 51.57 µg/mL
- Plasma concentration 24 hours following single dose (Day 2) ([5]; 3000 nmol/kg): 183.33 µg/mL
- Plasma concentration 24 hours following last injection of repeat dosing regimen (Day 33) ([5]; 6000 nmol/kg): 493.60 µg/mL
- body weight reduction at the conclusion of the study (day 33) ([6]; 1000 nmol/kg sc twice a week): 5.2%
- body weight reduction at the conclusion of the study (day 33) ([6]; 3000 nmol/kg sc twice a week): 12.3%
- body weight and food consumption (in words) ([6]; 3000 nmoles/kg twice a week): significantly reduced
- body weight reduction at the conclusion of the study (day 33) ([6]; 6000 nmol/kg sc twice a week): 28.3%
- food intake and body weight (in words) ([6]; 6000 nmol/kg twice a week): significantly reduced
- glucose tolerance, OGTT days 2 and 30 (in words) ([6]; 1000, 3000 and 6000 nmoles/kg, glucose 2 g/kg po): significantly and dose-dependently improved
- terminal cholesterol (in words) ([6]; day 33): dose-dependently reduced
- terminal glucose (in words) ([6]; study termination, day 33): dose-dependently reduced
- terminal plasma insulin (in words) ([6]; study termination, day 33): markedly reduced
- glucose tolerance (in words) ([2]; IPGTT, compared to vehicle PEG-SH): slightly less potent
- AUC (0-180) [2]: 15781
- AUC (−60-180) [2]: 19891
- % AUC from control, AUC (0-180) [2]: 70.1%
- % AUC from control, AUC (−60-180) [2]: 74.1%
- Cl/F_obs [7, 14]: 0.102 (mg)/(μg/ml)/h
- MRT0-∞ [7, 14]: 9 h
- Cl/F_obs ([7]; Human female A plasma 37° C.): 0.125 (mg)/(μg/ml)/h
- MRT0-∞ ([7]; Human female A plasma 37° C.): 8 h
- Cl/F_obs ([7]; Human female B plasma 37° C.): 0.136 (mg)/(μg/ml)/h
- MRT0-∞ ([7]; Human female B plasma 37° C.): 9 h
- Cl/F_obs ([7]; Human female C plasma 37° C.): 0.143 (mg)/(μg/ml)/h
- MRT0-∞ ([7]; Human female C plasma 37° C.): 7 h
- Cl/F_obs [7, 15]: 0.064 (mg)/(μg/ml)/h
- MRT0-∞ [7, 15]: 14 h
- Cl/F_obs ([7]; Human male A plasma 37° C.): 0.133 (mg)/(μg/ml)/h
- MRT0-∞ ([7]; Human male A plasma 37° C.): 8 h
- Cl/F_obs ([7]; Human male B plasma 37° C.): 0.148 (mg)/(μg/ml)/h
- MRT0-∞ ([7]; Human male B plasma 37° C.): 7 h
- Cl/F_obs ([7]; Human male C plasma 37° C.): 0.146 (mg)/(μg/ml)/h
- MRT0-∞ ([7]; Human male C plasma 37° C.): 7 h
- hydrolysis rate in different plasma types (in words) ([7]; rat, cynomolgus monkey and human plasma, 37° C.): comparable hydrolysis rate in most of the plasma samples; also recorded: very similar
- Viscosity ([8]; 100 mM Acetate, 100 mM Sucrose, pH 4.7, 66 mg/ml): 20.41 cp
- Viscosity ([8]; 100 mM Acetate, 100 mM Sucrose, pH 4.7, 72 mg/ml): 23.91 cp
- Viscosity ([8]; 100 mM Acetate, 100 mM Sucrose, pH 4.7, 77 mg/ml): 26.08 cp
- Viscosity ([8]; 100 mM Acetate, 100 mM Sucrose, pH 4.7, 80 mg/ml): 30.02 cp
- Viscosity ([8]; 100 mM Acetate, 100 mM Sucrose, pH 4.7, concentration 60 mg/ml (A280)): 17.48 cp
- Viscosity ([8]; T = 0, 50 mM Acetate pH 4.7, 60 mg/mL): 19.7 cP
- Viscosity ([8]; T = 0, 50 mM Acetate pH 4.7, 70 mg/mL): 29.2 cP
- Viscosity ([8]; T = 0, 50 mM Acetate pH 4.7, 80 mg/mL): 43.6 cP
- Viscosity ([8]; T = 0, 50 mM Acetate pH 4.7, 100 mg/mL): 79.2 cP
- Viscosity ([8]; T = 0, 50 mM Acetate pH 4.7, theoretical concentration 50 mg/mL): 12.9 cP
- Viscosity ([8]; T = 0, 100 mM Acetate pH 4.7, 50 mg/mL): 12.9 cP
- Viscosity ([8]; T = 0, 100 mM Acetate pH 4.7, 60 mg/mL): 20.8 cP
- Viscosity ([8]; T = 0, 100 mM Acetate pH 4.7, 70 mg/mL): 32.9 cP
- Viscosity ([8]; T = 0, 100 mM Acetate pH 4.7, 80 mg/mL): 48.7 cP
- Viscosity ([8]; T = 0, 100 mM Acetate pH 4.7, 100 mg/mL): 87.4 cP
- Viscosity ([8]; T = 24 hrs, 50 mM Acetate pH 4.7, 50 mg/mL): 12.2 cP
- Viscosity ([8]; T = 24 hrs, 50 mM Acetate pH 4.7, 60 mg/mL): 19.4 cP
- Viscosity ([8]; T = 24 hrs, 50 mM Acetate pH 4.7, 70 mg/mL): 28.3 cP
- Viscosity ([8]; T = 24 hrs, 100 mM Acetate pH 4.7, 50 mg/mL): 12.8 cP
- Viscosity ([8]; T = 24 hrs, 100 mM Acetate pH 4.7, 60 mg/mL): 20.4 cP
- Viscosity ([8]; T = 24 hrs, 100 mM Acetate pH 4.7, 70 mg/mL): 32.5 cP
- degradation by DPPIV (in words) [9]: no degradation of OXM was observed
- Final reduction changes in body weight (on day 33) compared to control (PEG-SH) [10, 16]: 25.4%
- fasting glucose (in words) [10, 16]: significant improvement
- non-fasting glucose (in words) [10, 16]: significant improvement
- terminal plasma lipidic profiles and fructosamine (in words) [10]: significant reduction
- glucose profile, Day 30 OGTT (in words) [10]: significant improved glucose profile
- glucose tolerance, day 2 OGTT (in words) [10]: significantly improved glucose tolerance
- Cl/F_obs [11, 17]: 0.172 (mg)/(μg/ml)/h
- MRT0-∞ [11, 17]: 5 h
- Cl/F_obs [11, 18]: 0.043 (mg)/(μg/ml)/h
- MRT0-∞ [11, 18]: 15 h

Substance: PEG30-EMCS-OXM: non-reversible form where N-(epsilon-Maleimidocaproyloxy)succinimide (EMCS) replaces Fmoc as linker
- Final reduction changes in body weight (on day 33) compared to control (PEG-SH) [10, 16]: 2.4%
- degradation by DPPIV (in words) [12]: no degradation of the conjugates was observed

Substance: PEG30-Fmoc-OXM (HSQGTFTSDYSKYLDSRRAQDFVQWLMNTKRNRNNIA; Oxyntomodulin PEG30 via Fmoc linker; UniProt P01275 53-89, looked up)
- Final reduction changes in body weight (on day 33) compared to control (PEG-SH) [10, 16]: 5.1%
- fasting glucose (in words) [10, 16]: significant improvement
- reduction change in body weight compared to its pair-fed group ([10]; 6000 nmol/kg sc every four days, insignificant): 2.6%
- terminal plasma lipidic profiles and fructosamine (in words) [10]: significant reduction
- glucose profile, Day 30 OGTT (in words) [10]: significant improved glucose profile
- glucose tolerance, day 2 OGTT (in words) [10]: significantly improved glucose tolerance

Substance: certolizumab pegol [Cimzia]
- Break Loose Force [13]: 6.28 N
- Glide Force [13]: 27.94 N

— patent US20190160152A1 (OPKO BIOLOGICS LTD., priority 2016, published 2019)
